Measured values as given in patent publication US20030143665A1 (NEW YORK UNIVERSITY, published 2003).

Legend:
[1] = biological target: T1, recombinant CIRL (calcium-independent receptor of α-latrotoxin), full-length, expressed in COS cells (rat, UniProt O88917 22-1515)
T1 sequence: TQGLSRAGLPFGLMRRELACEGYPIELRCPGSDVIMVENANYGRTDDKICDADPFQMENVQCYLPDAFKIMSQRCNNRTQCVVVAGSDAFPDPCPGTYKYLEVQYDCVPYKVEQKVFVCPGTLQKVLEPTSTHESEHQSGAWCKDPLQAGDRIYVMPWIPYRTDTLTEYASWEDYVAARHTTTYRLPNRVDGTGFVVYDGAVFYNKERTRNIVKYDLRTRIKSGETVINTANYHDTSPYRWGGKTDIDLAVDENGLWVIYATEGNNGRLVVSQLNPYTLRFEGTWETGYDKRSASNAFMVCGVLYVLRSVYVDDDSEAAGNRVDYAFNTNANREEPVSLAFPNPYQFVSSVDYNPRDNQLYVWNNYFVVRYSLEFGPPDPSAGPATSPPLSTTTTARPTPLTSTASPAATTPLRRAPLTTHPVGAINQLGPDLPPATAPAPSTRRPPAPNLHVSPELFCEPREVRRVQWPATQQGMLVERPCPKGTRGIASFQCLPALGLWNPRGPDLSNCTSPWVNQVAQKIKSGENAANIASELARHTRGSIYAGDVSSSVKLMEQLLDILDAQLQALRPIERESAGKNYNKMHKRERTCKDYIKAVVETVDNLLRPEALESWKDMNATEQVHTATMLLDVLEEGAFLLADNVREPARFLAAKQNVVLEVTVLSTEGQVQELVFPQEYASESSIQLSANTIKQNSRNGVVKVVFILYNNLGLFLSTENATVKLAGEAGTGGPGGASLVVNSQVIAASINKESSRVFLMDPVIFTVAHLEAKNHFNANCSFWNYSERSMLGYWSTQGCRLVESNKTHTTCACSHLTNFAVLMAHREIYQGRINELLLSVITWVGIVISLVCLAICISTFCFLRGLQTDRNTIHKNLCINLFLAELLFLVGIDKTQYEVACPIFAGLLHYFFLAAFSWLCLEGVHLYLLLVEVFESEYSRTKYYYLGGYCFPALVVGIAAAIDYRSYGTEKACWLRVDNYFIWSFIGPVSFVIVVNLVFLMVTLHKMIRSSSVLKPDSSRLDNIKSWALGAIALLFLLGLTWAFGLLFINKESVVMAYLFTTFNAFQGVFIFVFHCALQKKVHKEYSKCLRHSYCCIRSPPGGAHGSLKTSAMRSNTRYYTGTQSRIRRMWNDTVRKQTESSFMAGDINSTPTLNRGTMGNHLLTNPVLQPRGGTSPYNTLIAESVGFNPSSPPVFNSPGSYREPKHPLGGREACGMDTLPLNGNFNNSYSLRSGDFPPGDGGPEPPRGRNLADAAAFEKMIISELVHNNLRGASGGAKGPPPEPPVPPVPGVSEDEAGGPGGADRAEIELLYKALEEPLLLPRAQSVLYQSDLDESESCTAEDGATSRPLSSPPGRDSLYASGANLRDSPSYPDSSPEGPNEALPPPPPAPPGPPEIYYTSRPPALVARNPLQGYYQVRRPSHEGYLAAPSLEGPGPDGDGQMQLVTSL

[2] = biological target: T2, native CIRL of rat brain (calcium-independent α-latrotoxin binding sites in rat brain membranes); affinity … (rat, UniProt O88917 22-1515)
T2 sequence: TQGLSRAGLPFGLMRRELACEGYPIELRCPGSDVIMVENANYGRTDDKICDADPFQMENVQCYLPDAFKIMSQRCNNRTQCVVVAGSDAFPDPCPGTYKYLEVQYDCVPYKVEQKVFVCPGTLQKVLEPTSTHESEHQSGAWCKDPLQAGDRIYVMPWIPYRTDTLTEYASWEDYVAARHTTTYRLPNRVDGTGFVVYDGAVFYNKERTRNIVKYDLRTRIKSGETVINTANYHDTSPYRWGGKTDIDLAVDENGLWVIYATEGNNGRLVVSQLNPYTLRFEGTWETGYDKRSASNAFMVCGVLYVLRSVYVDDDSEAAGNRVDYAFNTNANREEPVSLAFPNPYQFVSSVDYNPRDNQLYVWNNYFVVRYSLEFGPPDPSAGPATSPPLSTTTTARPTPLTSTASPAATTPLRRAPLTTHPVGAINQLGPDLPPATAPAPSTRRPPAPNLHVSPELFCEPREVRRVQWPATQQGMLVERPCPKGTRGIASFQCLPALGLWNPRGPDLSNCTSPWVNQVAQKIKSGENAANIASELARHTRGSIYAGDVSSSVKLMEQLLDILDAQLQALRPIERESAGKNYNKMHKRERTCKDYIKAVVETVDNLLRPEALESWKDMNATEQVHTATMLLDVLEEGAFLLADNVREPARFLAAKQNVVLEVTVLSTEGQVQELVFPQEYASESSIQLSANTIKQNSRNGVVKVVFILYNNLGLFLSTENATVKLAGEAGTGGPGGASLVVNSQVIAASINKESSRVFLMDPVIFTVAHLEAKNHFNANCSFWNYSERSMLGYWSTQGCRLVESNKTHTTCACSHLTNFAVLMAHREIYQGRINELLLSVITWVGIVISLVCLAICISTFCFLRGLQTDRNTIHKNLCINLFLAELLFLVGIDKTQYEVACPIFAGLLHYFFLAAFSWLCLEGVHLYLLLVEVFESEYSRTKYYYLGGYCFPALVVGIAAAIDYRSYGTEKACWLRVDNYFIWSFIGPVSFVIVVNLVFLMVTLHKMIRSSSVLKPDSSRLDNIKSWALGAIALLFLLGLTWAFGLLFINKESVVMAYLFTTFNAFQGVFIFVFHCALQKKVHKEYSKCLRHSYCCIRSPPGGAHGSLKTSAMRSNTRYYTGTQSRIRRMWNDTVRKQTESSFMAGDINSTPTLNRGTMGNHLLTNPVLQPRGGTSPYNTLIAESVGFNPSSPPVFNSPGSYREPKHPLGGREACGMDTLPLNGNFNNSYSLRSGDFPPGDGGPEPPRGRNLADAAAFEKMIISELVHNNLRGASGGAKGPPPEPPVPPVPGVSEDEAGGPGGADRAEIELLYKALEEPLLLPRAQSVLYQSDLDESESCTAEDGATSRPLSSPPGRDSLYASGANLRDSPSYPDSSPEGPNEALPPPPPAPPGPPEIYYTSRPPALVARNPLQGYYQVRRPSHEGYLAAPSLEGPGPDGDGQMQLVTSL

B1: α-latrotoxin (ligand)
chain: EGEDLTLEEKAEICSELELQQKYVDIASNIIGDLSSLPIAGKIAGTIAAAAMTATHVASGRLDIEQTLLGCSDLPFDQIKEVLENRFNEIDRKLDSHSAALEEITKLVEKSISVVEKTRKQMNKRFDEVMKSIQDAKVSPIISKINNFARYFDTEKERIRGLKLNDYILKLEEPNGILLHFKESRTPTDDSLQAPLFSIIEEGYAVPKSIDDELAFKVLYALLYGTQTYVSVMFFLLEQYSFLANHYYEKGYLEKYDEYFNSLNNVFLDFKSSLVGTGTSNNEGLLDRVLQVLMTVKNSEFLGLEKNGVDEMLNEKINLFNKIKEEIEGKQKMTLSETPENFAQISFDKDITTPIGDWRDGREVRYAVQYASETLFSKISHWSDPVSVREKACPTLRMPVDQTRRNVLVFRKFDSSKPQLVGEITPYLSNFIDIDRDLYNAASNPDSAVGFKEFTKLNYDGANIRATFDHGRTVFHAAAKSGNDKIMFGLTFLAKSTELNQPDKKGYTPIHVAADSGNAGIVNLLIQRGVSINSKTYHFLQTPLHLAAQRGFVTTFQRLMESPEININERDKDGFTPLHYAIRGGERILEAFLNQISIDVNAKSNTGLTPFHLAIIKNDWPVASTLLGSKKVDINAVDENNITALHYAAILGYLETTKQLINLKEINANVVSSPGLLSALHYAILYKHDDVASFLMRSSNVNVNLKALGGITPLHLAVIQGRKQILSLMFDIGVNIEQKTDEKYTPLHLAAMSKYPELIQILLDQGSNFEAKTNSGATPLHLATFKGKSQAALILLNNEVNWRDTDENGQMPIHGAAMTGLLDVAQAIISIDATVVDIEDKNSDTPLNLAAQNSHIDVIKYFIDQGADINTRNKKGLAPLLAFSKKGNLDMVKYLFDKNANVYIADNDGMNFFYYAVQNGHLNIVKYAMSEKDKFEWSNTDNNRRDECPNEECAISHFAVCDAVQFDRIEIVKYFVGTLGNFAICGPLHQAARYGHLDIVKYLVEEEFLSVDGSKTDTPLCYASENGHFTVVQYLVSNGAKVNHDCGNGMTAIDKAITKNHLQVVQFLAANGVDFRRKNSRGTTPFLTAVAENALHIAEYLIREKRQDININEQNVDKDTALHLAVYYKNLQMIKLLIKYGIDVTIRNAYDKTALDIAIDAKFSNIVEYLKTKSGKFRR
modifications: 125I label (chloramine T procedure) in the binding and immunoprecipitation assays; coupled to Sepharose in the affinity chromatography
Kd [1]: 0.16 nM | Kd [2]: 0.28 nM
